Patent publication US20250270319A1

The binders below were run against recombinant cynomolgus CD33 protein (NovoProtein) (cynomolgus) (assay: ELISA, plate coated with recombinant CD33).
Sequence of recombinant cynomolgus CD33 protein (NovoProtein) (cynomolgus) (chain, as listed by the source limits assumed): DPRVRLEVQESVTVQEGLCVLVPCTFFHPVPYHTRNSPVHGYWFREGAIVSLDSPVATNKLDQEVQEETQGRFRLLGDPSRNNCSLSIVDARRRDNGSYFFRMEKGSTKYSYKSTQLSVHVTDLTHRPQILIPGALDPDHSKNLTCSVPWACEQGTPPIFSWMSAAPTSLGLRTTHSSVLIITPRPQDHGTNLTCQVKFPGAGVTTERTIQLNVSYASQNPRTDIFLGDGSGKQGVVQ

Relative maximal binding (cyno/human) | Binder
0.02 | anti-CD33 antibody 6C7H39 (antibody, V domains shown) VH: EVQLVESGGGLVQPGGSLRLSCAASGFTFSEYDMLWVRQAPGKGLEWVGEIRLKSNNYVTNYAASVKGRFTISRDDTKNSVYLQMNSLKTEDTGVYYCTRAGYYVPFAYWGQGTLVTVSS VL: QPVLTQSPSASASLGASVKLTCTLSSQHSTYTIEWYQQQPEKGPRYLMELKKEGSHSTGDGIPDRFSGSSSGAERYLTISSLQSEDEADYYCGVGVTIKEQFVYVFGGGTKLTVL
0.04 | anti-CD33 antibody 6C7H35 (antibody, V domains shown) VH: EVQLVESGGGLVQPGGSLRLSCAASGFTFSEYAMLWVRQAPGKGLEWVGEIRLKSNNYVTNYAASVKGRFTISRDDSKNSVYLQMNSLKTEDTGVYYCTRAGYYVPFTYWGQGTLVTVSS VL: QPVLTQSPSASASLGASVKLTCTLSSQHSTYTIEWYQQQPEKGPRYLMELKKEGSHSTGDGIPDRFSGSSSGAERYLTISSLQSEDEADYYCGVGVTIKEQFVYVFGGGTKLTVL
0.01 | anti-CD33 antibody 6C7H34 (antibody, V domains shown) VH: EVQLVESGGGLVQPGGSLRLSCAASGSTFSEYDMLWVRQAPGKGLEWVGEIRLKSNNYVTNYAASVKGRFTISRDDSKNSVYLQMNSLKTEDTGVYYCTRAGYYVPFAYWGQGTLVTVSS VL: QPMLTQSPSASASLGASVKLTCTLSSQHSTYTIEWYQQQPGKGPRYLMELKKEGSHSTGDGIPDRFSGSSSGAERYLTISSLQSEDEADYYCGVGLTIKEQFVYVFGGGTKLTVL
0.01 | anti-CD33 antibody 6C7H32 (antibody, V domains shown) VH: EVQLVESGGGLVQPGGSLRLSCAASGSTFSEYDMLWVRQAPGKGLEWVGEIRLKSNNYVTNYAASVKGRFTISRDDSKNSVYLQMNSLKTEDTGVYYCTRAGYYVPFAYWGQGTLVTVSS VL: QLMLTQSPSASASLGASVKLTCTLSSQHSTYTIEWYQQQPGKGPRYLMELKKEGSHSTGDGIPDRFSGSSSGAERYLTISSLQSEDEADYYCGVGHTIKEQFVYEFGGGTKLTVL
0.03 | anti-CD33 antibody 6C7H40 (antibody, V domains shown) VH: EVQLVESGGGLVQPGGSLRLSCAASGFTFSEYDMLWVRQAPGKGLEWVGEIRLKSNNYVTNYAASVKGRFTISRDDTKNSVYLQMNSLKTEDTGVYYCTRAGYYVPFAYWGQGTLVTVSS VL: QLMLTQSPSASASLGASVKLTCTLSSQHSTYTIEWYQQQPGKGPRYLMELKKEGSHSTGDGIPDRFSGSSSGAERYLTISSLQSEDEADYYCGVGHTIKEQFVYEFGGGTKLTVL
0.01 | anti-CD33 antibody 6C7H33 (antibody, V domains shown) VH: EVQLVESGGGLVQPGGSLRLSCAASGSTFSEYDMLWVRQAPGKGLEWVGEIRLKSNNYVTNYAASVKGRFTISRDDSKNSVYLQMNSLKTEDTGVYYCTRAGYYVPFAYWGQGTLVTVSS VL: QLMLTQSPSASASLGASVKLTCTLSSQHSTYTIEWYQQQPGKGPRYLMELKKEGSHSTGDGIPDRFSGSSSGAERYLTISSLQSEDEADYYCGVGHTIKEQFVYVFGGGTKLTVL
0.02 | anti-CD33 antibody 6C7H31 (antibody, V domains shown) VH: EVQLVESGGGLVQPGGSLRLSCAASGSTFSEYDMLWVRQAPGKGLEWVGEIRLKSNNYVTNYAASVKGRFTISRDDSKNSVYLQMNSLKTEDTGVYYCTRAGYYVPFAYWGQGTLVTVSS VL: QPVLTQSPSASASLGASVKLTCTLSSQHSTYTIEWYQQQPEKGPRYLMELKKEGSHSTGDGIPDRFSGSSSGAERYLTISSLQSEDEADYYCGVGVTIKEQFVYVFGGGTKLTVL
